Reference: the DeepSol protein solubility set

Assay: soluble on expression in E. coli; label from the status in PepcDB or PDB records

Soluble on expression in E. coli, not soluble:
MSLSIWGLVNEEDAEIDEDDLSKQEDGGEQPLRKVRTLAQSKPSDKEVILKTDGTFGTLSGKDDSIVEEKAYEPDLSDADFEGIEASPKLDVSKDWVEQLILAGSSLRSVFATSKEFDGPCQNEIDLLFSECNDEIDNAKLIMKERRFTASYTFAKFSTGSMLLTKDIVGKSGVSIKRLPTELQRKFLFDDVYLDKEIEKVTIEARKSNPYPQISESSLLFKDALDYMEKTSSDYNLWKLSSILFDPVSYPYKTDNDQVKMALLKKERHCRLTSWIVSQIGPEIEEKIRNSSNEIEQIFLYLLLNDVVRASKLAIESKNGHLSVLISYLGSNDPRIRDLAELQLQKWSTGGCSIDKNISKIYKLLSGSPFEGLFSLKELESEFSWLCLLNLTLCYGQIDEYSLESLVQSHLDKFSLPYDDPIGVIFQLYAANENTEKLYKEVRQRTNALDVQFCWYLIQTLRFNGTRVFSKETSDEATFAFAAQLEFAQLHGHSLFVSCFLNDDKAAEDTIKRLVMREITLLRASTNDHILNRLKIPSQLIFNAQALKDRYEGNYLEGHHHHHH
MGSDKIHHHHHHMPVKLAQALANPLFPALDSALRSGRHIGLDELDNHAFLMDFQEYLEEFYARYNVELIRAPEGFFYLRPRSTTLIPRSVLSELDMMVGKILCYLYLSPERLANEGIFTQQELYDELLTLADEAKLLKLVNNRSTGSDVDRQKLQEKVRSSLNRLRRLGMVWFMGHDSSKFRITESVFRFGADVRAGDDPREAQRRLIRDGEAMPIENHLQLNDETEENQPDSGEEE
MDSVIQKRIFVGNIFHNADDCYSELLDRFGKFGDCQDFQFEKHNHFAFIDIRFNDEADFNKLRKSFNNVKFKGNILKVDEAKPNWESTWAVQHAKDLKEDIILNAKMKKKNWQHYKKMENVAKSWKDHKEVIAGRMREAPRKRSQLRNITFRINVNGSLKVYKCYKTKLWGYERNKELNDLVYKFTNNFWKNGYNHIVDRLDYSRAVKTVRFKNGLKQLTVSKDENVCSGEMDSDENMSEEEKEKNNVILNDLLKDFDFDKPMTLNDSDEELLTEQRKGEEEEEEEEEKEVNAPEYENVNKTKDQSTLPQEKPEERKEQDEGDGQEDNEFIPTFTKEIGQGTISNTETLRNLFNPNEAEPVSQFKLIEDSDNDIDHAKDVDVNQLEEEVSKSSDTLGLTSAPVPHVSRDKDNKNFLFFPHLQSPFLVGQTQLSKVRAPGRETMLSNWDEEFWANRGNWTRDMRRKMKDALKHRKRKQSKSGLLL
MGSDKIHHHHHHMGLSTSTKTFAERLEESKKDQFAKAAVAKAQDAQWEKRESARDELGNWQEWRDIAESIRQHTLKYLPHYLTEFSDNVAARGGHVFFAADAKEANDYVKRIVLEKNAKKIVKSKSMVTTEVDIDPMLVSLSDDMDILETDLAEFILQVADWDEPSHIVFPALHKNRDQIREIFAKKLGYEGDNNPVNLARCARDTMRKLFLKSEVGITGCNFAIANTGDINLSTNEGNADLTISIPKTQIVLMGMERIVPSIKEAEILDNMLARSAVGQKLTTYVTFAGQQADDESDGPEDFHVVIVDNGRSNAIGTAFEAVLQCIRCGACLNVCPVYRQIGGHAYGSIYPGPIGSVLSPVLGGYEQYGDLPYASTLCGACTETCPVKIPLHELLIEHRKVMEDDLSMHHDGSFVNFEMNTIGKGTSSPALFGMAINMAHTGLNMLPKAKEVSVEGSLFNYGAVRKAPALAKGWTDVRDLPIAPPHKEQFRQWYKKHKAGK
MREVLYRSDIYVFGRYPMSSFIGYPGLSSSSFCTHINFFYASSCTSTARVFRKKWREIFFVLARKNFTSRAKSKIFPRHVFRDMNKEIFRTQTI
MGSDKIHHHHHHAGKQNEVELVAEKQLAFPLDEQTYYLSKSMFQFEENGKEYLHFENTQKSLYDIVIFDIENQQIAKRIPLHKTGPNGLPAVFGSRPSPDSQYILVAQNNISRLSSINSQGEIIRNYNFQTPEGRFTPLSFGSYYNAPAFIKDSCIFLRQEILKPDMKKEDWPRTHMFASQDLRTGEVKWIPIFYPPIFKEEYDNIAGGYGFSYDYNYKESRLVCGFFGYDSLMVTDDLKHIRWYNAKSRYLKSMKPKLGNSMEGINAIIKLNENPRYWHIMYDKYRNVYYRFAEMPYKLAPNESPYETPKGKEFSVIVLNADFEIIGETKFPGKKYFYKMSFVGREGLYISENNLENPQFDENKLVFTCFKIKNASPNK
MSRGQIIHSGHFMCSNPHDDLVQDEDEEDVEVDVVEDDDKSMEASSSVHHKNKALDEKPVTFYKFGVGKTQSIAIDVSLNKLNKCIKVAYNKMTTPKWKDFKGLRLHWKQRVRLNNVIWRAYYIEFRKKQPEKPKKPFCYFAVPDDDTTHQKIEGSIVEGMYWKRKMEGVCAQYKRWRIRSKHNLVTDKGGMVATCSSTSVSSMTGELKRKRKHTVPKETIESKLRSYEPPVKLQRSQTPKHTISDEFAWDFDDLDNVFTDDFLNSLSEPYMFPDPRDVYSGNNADIMQPGLLPLQPTIEDIMMSLGDDMPDSPPFHNDRDTMRTPTNDQPSISAQQIPQMRRSASSSASLHQMQVAQAQAQSISQISQPSQQLQHQIQIQQPVAARPHEFMASSIMMDYRLMPTRQSSAITSQMLMLSQSASTLSSQPQYATSTHYSTNNSFLPIRNTMTNQHHLGHTSQHSPWNKQQQSNFLVSLPHQSHVERILNNQPPLVPPPSRSNLLPTQNDPYLPQFLQSTQPTPQPQSHDPMMAPSRSWWLDSPLTASVQSPLSVATPLPLANQTGPQTPLGQLIGSADNGFLFGGNNTPGGFKMSGTTSGVPTLSQRLEQPPISRTSTIFGNVENKPERIFTSLTSQNTPTPSPLDISSLSRLRTSSLNESWKMSHIVEGSPTYQAFAASVTTKPSILESPSTSGDISGPASVPVQASQHPPKIITPPSASSKRKEQEAAMAPLVNRQQSCDVNLLNGKMAVKVEEKSGRHYLPTTPTELKEVTKEEPLLMSAPSSVKSMRRQAPDSTLHPEERKRILHLHAEQNRRSALKDGFDQLMDIIPDLYSGGVKPTNAVVLAKSADHIRRLQAEKWDKTQKIDEAKAKIEKLNQKITSLQSNLPQSSAPSSSSQVDSKTSLETFFDRYVKEGAKKNWRFWVVSYLAEKLKFF
MGSKRVCPDANNSVKSKKAKTLDFLAHPRRKIAIQFFYLGWEHDGLVQQPHTQNTVENHIMQALIKTHLIEDWTKCDFSRCGRTDKGVSAFKQTAAMVVRSLCPGDSGVFWSDSTQEHQKVDYKASGEELPYVKMLNGVLPKTIRVFAWAPVAQTFNARFDCNRRTYKYSFAKADLNLEKMRQGAELLVGEHDFSNFCQIDMNEKRLLQSYVRKVYEVKVEQVSTHPENDMYSMVELTVSGSGFLWHMIRYIVTILQEIGRENEQPSLISQLLDLKKYPSRPQYTLASDTPLCLFDCGYKSEDVEWKVHDYTLKSTVTGLQKTWATYQARSRMMENMLGELTGMAEFSSGDANKGLHEFVQDRPIPSNYIRFENRKMCESLESKKEKMAEKKKNGEESSDKL
MSIRSGSRRLELPHLSFPGLLRMNIHKNARLTPLRREEMAVAVFGGRLTKAQAARLYGVSLKIVSRWTERFRISGRAAMTDRSSRPTRSPRQMGQDIVERILHLRRQRLTGKHIAMETGVSPATVSRILRRAKLSRMKDIDPVEPVIRYEYAEPGGLIHLDIKRLGRFERVGHRITGNRTRQSNTRGVGWEYVHVCIDDVSRIAFTDIFPDEKAIMPLEHHHHHH
MSRHLTFHIITNVPYSNLNRDDSGTPKRVSLGGALRALHSSQSIKRGIRTKYELASLDTSIRSGKLVEEVVRVGLDLKPEVDEKLLRKGAAKIIGSLTKGESSEGESARSAWMSREEITTAAQTVIDGQEDSDFIQDNRTGSLAIAAFGRMFANAPKKNTEAALAVSPGVTTHAVTIETDYFSTVDDVREREHDSGATFLGVARYVNGTFYRTVSIDKEQLRESWSGFGQEESVDNLRELIKAIVYGAPRGKENSTAPYTLPSLVFAEEQHYRTAYSFETPVLVGKDGGFEFPTICELDRQFARARSFDKGNFGPLEVVSGTAVLEDEQFEGVQRSDLNGLIEAVVNWVTND
MIKKLDVVAAIIECDGKILLAQRPAHADQAGLWEFAGGKVEPGETQPQALIRELREELGIDATPGVYIASHQRDVSGRRIHLHAWHVPAFNGLIRALEHQALAWCTPEEALEYPLAPADIPLLQAFIALRDARLTDSC
MGSDKIHHHHHHMWFRNLLIYRLAGEVITSDELEAYLAKQTLQGCLGLEPQSRGWVPPGIAEADLVYSYGQQMLIALGTEKKLLPASVVNQLAKVRAQEMESHQGYAPGRKQMKEIKEAAYRELLSRAFAIRQRSHAWIDPVGGWFIVEGASASKADALIEAFIKSTGIGLKRIRTTMAPTSAMTAWLSGDDPPAIFSVDSDSIFRSREDKKVSVSYIRQSPDPQEITRHVRTGKEVIRLAMTWRDKISFILDENLQLKRLTLLDIDREPAETAEEQFDSNFFLMTEELRQLLPDLVEILGGMTAD

Soluble on expression in E. coli, soluble:
MGYNTIPAGKDLPNDIYVAIEIPANASPIKYEIDKDMDALLVDRFMATPMFYPANYGYINNTLADDGDALDVLVITPYPVAPGSVIRARPVGVLKMSDEAGGDEKLLAVPHEKLTQLYNDIHDIDDVPQLLKDQIVHFFEHYKDLEKGKWVKVEGWENADAARAAIVKSAAAYKG
GMDIINNRRSIRNYKGKKVEKEKIEKLLRAAMQAPSAGNQQPWEFIVLEDRENIDKLSNFSKYANSLKTAPLAIVLLADEEKMKISEMWEQDMAAAAENILLEAAYLDLGAVWLGAQPIEERVKNLKEMFNLKSNIKPFCVISVGYPENSENKFIDRFDAKRIHIEKY
MDATDDIRAGELASDWSGSPDAGVVFIGRIHTPWNRLKECPRHGRADGPVCRIEVFETWLPALAGIDDGTLLEVFYWLHRSRRDLLLQCPRNDGDARGTFSIRSPLRPNPIGTSIARVDRRDGANLFIRGLDCLDGTPLVDLKPDRAEFMPLAPPKPGDFQVGEPRR
MESQVRQNFHQDCEAGLNRTVNLKFHSSYVYLSMASYFNRDDVALSNFAKFFRERSEEEKEHAEKLIEYQNQRGGRVFLQSVEKPERDDWANGLEALQTALKLQKSVNQALLDLHAVAADKSDPHMTDFLESPYLSESVETIKKLGDHITSLKKLWSSHPGMAEYLFNKHTLG
AIAAHVRTYNPRVRVGNWKEDVTLEEETSKEFILQKDRGELTVQKEGALKQSILKPVSLSVSQDGFLHFGDTVMLVNCGDGGHMQRSPCVLSIIADSSNVTSHSQTNTGPHLLGPLQVGGAHSMDPCVRNTFIIISVDGSSDGEVVRYDQSFALKTTGGFAGELFLASDHKSFQKCAKKSRLQELSLVEEFDFLCWWKVLYFDPQDRLENEGYPVQVNNKVLISHCKTNQCLAALSNHILWSQFGKEYELTAHTFLDSHKAEQDNNHWLFSTAHPANQSQSLLQLQQEEHKENQEDTQVKDCS
SYHLDTTAPPPTNLSTLPNNTLFHLWRPRAHILPAEGQIGDPCAHYTDPSTGLFHVGFLHDGDGIAGATTANLATYTDTSDNGSFLIQPGGKNDPVAVFDGAVIPVGVNNTPTLLYTSVSFLPIHWSIPYTRGSETQSLAVARDGGRRFDKLDQGPVIADHPFAVDVTAFRAPFVFRSARLDVLLSLDEEVARNETAVQQAVDGWTEKNAPWYVAVSGGVHGVGPAQFLYRQNGGNASEFQYWEYLGEWWQEATNSSWGDEGTWAGRWGFNFETGNVLFLTEEGHDPQTGEVFVTLGTEGSGLPIVPQVSSIHDMLWAAGEVGVGSEQEGAKVEFSPSMAGFLDWGFSAYAAAGKVLPASSAVSKTSGVEVDRYVSFVWLTGDQYEQADGFPTAQQGWTGSLLLPRELKVQTVENVVDNELVREEGVSWVVGESDNQTATLRTLGITIARETKAALLANGSVTAEEDRTLQTAAVVPFAQSPSSKFFVLTAQLEFPASARSSPLQSGFEILASELERTAIYYQFSNESLVVDRSQTSAAAPTNPGLDSFTESGKLRLFDVIENGQEQVETLDLTVVVDNAVVEVYANGRFALSTWARSWYDNSTQIRFFHNGEGEVQFRNVSVSEGLYNAWPER
